In PMC2112137:

Legend:
[1] = molecular target: F-actin-36,000-dalton factor complex (rabbit skeletal F-actin plus Physarum 36,000-dalton factor) (rabbit | Physarum polycephalum) (UniProt P68135); test: co-sedimentation
[2] = molecular target: plasmodial actin of Physarum polycephalum (pure plasmodial F-actin) (Physarum polycephalum); test: light scattering
[3] = molecular target: plasmodial actin of Physarum polycephalum (pure plasmodial F-actin) (Physarum polycephalum); test: co-sedimentation
[4] = molecular target: rabbit skeletal muscle F-actin (rabbit) (UniProt P68135); test: co-sedimentation

Substance: rabbit skeletal muscle troponin (complex)
- Bound TN (%) [1]: 25.8%

Substance: heavy meromyosin (HMM) of rabbit skeletal muscle myosin (complex)
- HMM bound by 0.1 mg/ml F-actin (untreated actin) [2]: 0.362 mg/mL
- stoichiometry N (mol actin monomer per mol HMM) [2]: 2
- Actin/HMM binding ratio [3]: 0.192 g/g
- stoichiometry N (mol actin per mol HMM) [3]: 2

Substance: 36,000-dalton factor (novel 36,000-dalton actin-binding protein from Physarum plasmodia) (natural protein)
- factor/actin weight ratio in the pellet (g/g (factor/actin)) [4]: 0.12
- stoichiometry N (mol actin per mol 36,000-dalton factor) [4]: 6.6
